Results as given in US20100135997A1 (MEDGENE, published 2010).

target: T1, HLA-A*0201 loaded with the Carcinoembryonic antigen (CEA)-derived … peptide (biotin on the C-terminal biotinylation tag); assay: Biacore SPR
T1 construct: Soluble, biotinylated, immobilised on a streptavidin chip
Experimental: SPR measures changes in refractive index expressed in response units (RU) near a sensor surface within a small flow cell, a principle that can be used to detect receptor ligand interactions and to analyse their affinity and kinetic parameters. The probe flow cells were prepared by immobilising the pMHC complexes in flow cells via biotin-tag binding. The assay was then performed by passing soluble ILT-like molecule over the surfaces of the different flow cells at a constant flow rate, measuring the SPR response in doing so.

| Binder | Kd | koff |
| --- | --- | --- |
| SEQ ID NO 11 (receptor, mutated soluble two domain ILT-2) MAGHLPKPTLWAEPGSVITMDQPVTLRCQGGQETQEYRLYREKKTAPWITRIPQELVKKGQFPIPSITWEHAGRYRCYYGSDTSQWSASSDPLELVVTGVYIKPTLSAQPSPVVNSGGNVTLQCDSQVAFDGFILCKEGEDEHPQCLNSQPHARGSSRAIFSVGPVSPSRRWWYRCYAYVDWFPYEWSLPSDLLELDVDG | ≤ 1000 nM | ≤ 2 s⁻¹ |
| SEQ ID NO 14 (receptor, mutated soluble two domain ILT-2) MAQHLPKPTLWAEPGSVITMDQPVTLRCQGGQETQEYRLYREKKTAPWITRIPQELVKKGQFPIPSITWEHAGRYRCYYGSDTSQWSASSDPLELVVTGVYIKPTLSAQPSPVVNSGGNVTLQCDSQVDFDGFILCKEGEDEHPQCLNSQPHARGSSRAIFSVGPVSPSRRWWYRCYAYDSNSPYEWSLPSDLLELDVDG | ≤ 1000 nM | ≤ 2 s⁻¹ |
| SEQ ID NO 13 (receptor, mutated soluble two domain ILT-2) MAGHLPKPTLWAEPGSVITMDQPVTLRCQGGQETQEYRLYREKKTAPWITRIPQELVKKGQFPIPSITWEHAGRYRCYYGSDTSQWSASSDPLELVVTGVYIKPTLSAQPSPVVNSGGNVTLQCDSQVAFDGFILCKEGEDEHPQCLNSQPHARGSSRAIFSVGPVSPSRRWWYRCYAYPAWTPYEWSLPSDLLELDVDG | ≤ 1000 nM | ≤ 2 s⁻¹ |
| SEQ ID NO 17 (receptor, mutated soluble two domain ILT-2) MAQHLPKPTLWAEPGSVITMDQPVTLRCQGGQETQEYRLYREKKTAPWITRIPQELVKKGQFPIPSITWEHAGRYRCYYGSDTSQWSASSDPLELVVTGVYIKPTLSAQPSPVVNSGGNVTLQCDSQVAYDGFILCKEGEDEHPQCLNSQPHARGSSRAIFSVGPVSPSRRWWYRCYAYDSNSPYEWSLPSDLLELDVDG | ≤ 1000 nM | ≤ 2 s⁻¹ |
| SEQ ID NO 15 (receptor, mutated soluble two domain ILT-2) MAQHLPKPTLWAEPGSVITMDQPVTLRCQGGQETQEYRLYREKKTAPWITRIPQELVKKGQFPIPSITWEHAGRYRCYYGSDTSQWSASSDPLELVVTGVYIKPTLSAQPSPVVNSGGNVTLQCDSQVSFDGFILCKEGEDEHPQCLNSQPHARGSSRAIFSVGPVSPSRRWWYRCYAYDSNSPYEWSLPSDLLELDVDG | ≤ 1000 nM | ≤ 2 s⁻¹ |
| SEQ ID NO 12 (receptor, mutated soluble two domain ILT-2) MAGHLPKPTLWAEPGSVITMDQPVTLRCQGGQETQEYRLYREKKTAPWITRIPQELVKKGQFPIPSITWEHAGRYRCYYGSDTSQWSASSDPLELVVTGVYIKPTLSAQPSPVVNSGGNVTLQCDSQVAFDGFILCKEGEDEHPQCLNSQPHARGSSRAIFSVGPVSPSRRWWYRCYAYVSYWPYEWSLPSDLLELDVDG | ≤ 1000 nM | ≤ 2 s⁻¹ |
| SEQ ID NO 20 (receptor, mutated soluble two domain ILT-2) MAGHLPKPTLWAEPGSVITMDQPVTLRCQGGQETQEYRLYREKKTAPWITRIPQELVKKGQFPIPSITWEHAGRYRCYYGSDTSQWSASSDPLELVVTGVYIKPTLSAQPSPVVNSGGNVTLQCDSQVAFDGFILCKEGEDEHPQCLNSQPHARGSSRAIFSVGPVSPSRRWWYRCYAYPDFTPYEWSLPSDLLELDVDG | ≤ 1000 nM | ≤ 2 s⁻¹ |
| SEQ ID NO 18 (receptor, mutated soluble two domain ILT-2) MAGHLPKPTLWAEPGSVITMDQPVTLRCQGGQETQEYRLYREKKTAPWITRIPQELVKKGQFPIPSITWEHAGRYRCYYGSDTSQWSASSDPLELVVTGVYIKPTLSAQPSPVVNSGGNVTLQCDSQVAFDGFILCKEGEDEHPQCLNSQPHARGSSRAIFSVGPVSPSRRWWYRCYAYMSWAPYEWSLPSDLLELDVDG | ≤ 1000 nM | ≤ 2 s⁻¹ |
| SEQ ID NO 16 (receptor, mutated soluble two domain ILT-2) MAQHLPKPTLWAEPGSVITMDQPVTLRCQGGQETQEYRLYREKKTAPWITRIPQELVKKGQFPIPSITWEHAGRYRCYYGSDTSQWSASSDPLELVVTGVYIKPTLSAQPSPVVNSGGNVTLQCDSQVTFDGFILCKEGEDEHPQCLNSQPHARGSSRAIFSVGPVSPSRRWWYRCYAYDSNSPYEWSLPSDLLELDVDG | ≤ 1000 nM | ≤ 2 s⁻¹ |

More lines, now with the values ahead:

| Kd | koff | Binder |
| --- | --- | --- |
| ≤ 1000 nM | ≤ 2 s⁻¹ | SEQ ID NO 36 (receptor, mutated soluble two domain ILT-2) MAGHLPKPTLWAEPGSVITQGSPVTLRCQGGQETQEYRLYREKKTAPWITRIPQELVKKGQFPIPSITWEHAGRYRCYYGSDTSQWSASSDPLELVVTGVYIKPTLSAQPSPVVNSGGNVTLQCDSQVAFDGFILCKEGEDEHPQCLNSQPHARGSSRAIFSVGPVSPSRRWWYRCYAYPAWTPYEWSLPSDLLELDVDG |
| ≤ 1000 nM | ≤ 2 s⁻¹ | SEQ ID NO 43 (receptor, mutated soluble two domain ILT-2) MAGHLPKPTLWAEPGSVITMDQPVTLRCQGGQETQEYRLYREKKTAPWITRIPQELVKKGQFPIPSITWEHAGRYRCYYGSDTSQWSASSDPLELVVTGVYIKPTLSAQPSPVVNSGGNVTLQCDSQVAFDGFILCKEGEDEHPQCLNSQPHARGSSRAIFSVGPVSPSRRWWYRCYAYMSYSPYEWSLPSDLLELDVDG |
| ≤ 1000 nM | ≤ 2 s⁻¹ | SEQ ID NO 21 (receptor, mutated soluble two domain ILT-2) MAGHLPKPTLWAEPGSVITMDQPVTLRCQGGQETQEYRLYREKKTAPWITRIPQELVKKGQFPIPSITWEHAGRYRCYYGSDTSQWSASSDPLELVVTGVYIKPTLSAQPSPVVNSGGNVTLQCDSQVAFDGFILCKEGEDEHPQCLNSQPHARGSSRAIFSVGPVSPSRRWWYRCYAYPWFTPYEWSLPSDLLELDVDG |
| ≤ 1000 nM | ≤ 2 s⁻¹ | SEQ ID NO 44 (receptor, mutated soluble two domain ILT-2) MAGHLPKPTLWAEPGSVITMDQPVTLRCQGGQETQEYRLYREKKTAPWITRIPQELVKKGQFPIPSITWEHAGRYRCYYGSDTSQWSASSDPLELVVTGVYIKPTLSAQPSPVVNSGGNVTLQCDSQVAFDGFILCKEGEDEHPQCLNSQPHARGSSRAIFSVGPVSPSRRWWYRCYAYPAYTPYEWSLPSDLLELDVDG |
| ≤ 1000 nM | ≤ 2 s⁻¹ | SEQ ID NO 32 (receptor, mutated soluble two domain ILT-2) MAGHLPKPTLWAEPGSVITQGSPVTLRCQGGQETQEYRLYREKKTAPWITRIPQELVKKGQFPIPSITWEHAGRYRCYYGSDTSQWSASSDPLELVVTGVYIKPTLSAQPSPVVNSGGNVTLQCDSQVAFDGFILCKEGEDEHPQCLNSQPHARGSSRAIFSVGPVSPSRRWWYRCYAYVAWAPYEWSLPSDLLELDVDG |
| ≤ 1000 nM | ≤ 2 s⁻¹ | SEQ ID NO 22 (receptor, mutated soluble two domain ILT-2) MAGHLPKPTLWAEPGSVITMDQPVTLRCQGGQETQEYRLYREKKTAPWITRIPQELVKKGQFPIPSITWEHAGRYRCYYGSDTSQWSASSDPLELVVTGVYIKPTLSAQPSPVVNSGGNVTLQCDSQVAFDGFILCKEGEDEHPQCLNSQPHARGSSRAIFSVGPVSPSRRWWYRCYAYGRWLPYEWSLPSDLLELDVDG |
| ≤ 1000 nM | ≤ 2 s⁻¹ | SEQ ID NO 34 (receptor, mutated soluble two domain ILT-2) MAGHLPKPTLWAEPGSVITQGSPVTLRCQGGQETQEYRLYREKKTAPWITRIPQELVKKGQFPIPSITWEHAGRYRCYYGSDTSQWSASSDPLELVVTGVYIKPTLSAQPSPVVNSGGNVTLQCDSQVAFDGFILCKEGEDEHPQCLNSQPHARGSSRAIFSVGPVSPSRRWWYRCYAYMNWAPYEWSLPSDLLELDVDG |
| ≤ 1000 nM | ≤ 2 s⁻¹ | SEQ ID NO 46 (receptor, mutated soluble two domain ILT-2) MAGHLPKPTLWAEPGSVITMDQPVTLRCQGGQETQEYRLYREKKTAPWITRIPQELVKKGQFPIPSITWEHAGRYRCYYGSDTSQWSASSDPLELVVTGVYIKPTLSAQPSPVVNSGGNVTLQCDSQVAFDGFILCKEGEDEHPQCLNSQPHARGSSRAIFSVGPVSPSRRWWYRCYAYDSWSPYEWSLPSDLLELDVDG |
| ≤ 1000 nM | ≤ 2 s⁻¹ | SEQ ID NO 38 (receptor, mutated soluble two domain ILT-2) MAGHLPKPTLWAEPGSVITQGSPVTLRCQGGQETQEYRLYREKKTAPWITRIPQELVKKGQFPIPSITWEHAGRYRCYYGSDTSQWSASSDPLELVVTGVYIKPTLSAQPSPVVNSGGNVTLQCDSQVAFDGFILCKEGEDEHPQCLNSQPHARGSSRAIFSVGPVSPSRRWWYRCYAYMSWAPYEWSLPSDLLELDVDG |
| ≤ 1000 nM | ≤ 2 s⁻¹ | SEQ ID NO 45 (receptor, mutated soluble two domain ILT-2) MAGHLPKPTLWAEPGSVITMDQPVTLRCQGGQETQEYRLYREKKTAPWITRIPQELVKKGQFPIPSITWEHAGRYRCYYGSDTSQWSASSDPLELVVTGVYIKPTLSAQPSPVVNSGGNVTLQCDSQVAFDGFILCKEGEDEHPQCLNSQPHARGSSRAIFSVGPVSPSRRWWYRCYAYMSNSPYEWSLPSDLLELDVDG |
| ≤ 1000 nM | ≤ 2 s⁻¹ | SEQ ID NO 40 (receptor, mutated soluble two domain ILT-2) MAGHLPKPTLWAEPGSVITQGSPVTLRCQGGQETQEYRLYREKKTAPWITRIPQELVKKGQFPIPSITWEHAGRYRCYYGSDTSQWSASSDPLELVVTGVYIKPTLSAQPSPVVNSGGNVTLQCDSQVAFDGFILCKEGEDEHPQCLNSQPHARGSSRAIFSVGPVSPSRRWWYRCYAYMSWSPYEWSLPSDLLELDVDG |
| ≤ 1000 nM | ≤ 2 s⁻¹ | SEQ ID NO 30 (receptor, mutated soluble two domain ILT-2) MAGHLPKPTLWAEPGSVITQGSPVTLRCQGGQETQEYRLYREKKTAPWITRIPQELVKKGQFPIPSITWEHAGRYRCYYGSDTSQWSASSDPLELVVTGVYIKPTLSAQPSPVVNSGGNVTLQCDSQVAFDGFILCKEGEDEHPQCLNSQPHARGSSRAIFSVGPVSPSRRWWYRCYAYPIWTPYEWSLPSDLLELDVDG |
| ≤ 1000 nM | ≤ 2 s⁻¹ | SEQ ID NO 23 (receptor, mutated soluble two domain ILT-2) MAGHLPKPTLWAEPGSVITMDQPVTLRCQGGQETQEYRLYREKKTAPWITRIPQELVKKGQFPIPSITWEHAGRYRCYYGSDTSQWSASSDPLELVVTGVYIKPTLSAQPSPVVNSGGNVTLQCDSQVAFDGFILCKEGEDEHPQCLNSQPHARGSSRAIFSVGPVSPSRRWWYRCYAYVEWLPYEWSLPSDLLELDVDG |
